Values quoted from earlier work in paper PMC4438997.

Biological target: Ezrin FERM (Homo sapiens) (UniProt P15311)
Chain of UniProt P15311 (P15311 1-299): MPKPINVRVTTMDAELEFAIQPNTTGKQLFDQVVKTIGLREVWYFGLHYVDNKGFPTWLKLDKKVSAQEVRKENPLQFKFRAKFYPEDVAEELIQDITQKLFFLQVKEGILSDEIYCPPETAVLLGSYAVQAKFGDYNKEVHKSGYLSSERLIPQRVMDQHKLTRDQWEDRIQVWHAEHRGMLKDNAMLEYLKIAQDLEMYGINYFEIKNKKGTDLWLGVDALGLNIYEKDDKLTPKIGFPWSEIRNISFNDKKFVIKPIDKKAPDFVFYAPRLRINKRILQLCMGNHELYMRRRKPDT

For “NHERF1 C-terminal domain (from UniProt O14745)”, which Kd is on record?
Its Kd is 0.019 µM.
